In patent publication US20170210813A1 (Regeneron, published 2017):
Values belong to the binder of their own block, whether it stands above or below them.

Legend:
[1] = target: full length human PDGFR-beta on HEK293 cells (human, UniProt P09619 33-1106); assay: cell-based or functional assay
hPDGFRb.mmh [2] = target: T1, hPDGFRb.mmh (human, UniProt P09619 33-531); assay: SPR, mAb captured, 25 C
T1 construct: Soluble monomeric construct; also called soluble human PDGFR-beta.mmh
Protocol: (§1) Antibodies, expressed as either mouse Fc (prefix H1M; H2M) or human Fc (prefix H4H), were captured on their respective anti-Fc sensor surfaces (Mab capture format). […] Kinetic association (kₐ) and dissociation (kd) rate constants were determined by processing and fitting the data to a 1:1 binding model using Scrubber 2.0 curve fitting software.

human PDGFRb.mFc = target: T2, human PDGFRb.mFc (human); assay: SPR, mAb captured, 25 C
T2 construct: Soluble dimeric construct with mouse Fc; also called hPDGFRb.mFc; soluble human PDGFR-beta.mFc
T2 chain: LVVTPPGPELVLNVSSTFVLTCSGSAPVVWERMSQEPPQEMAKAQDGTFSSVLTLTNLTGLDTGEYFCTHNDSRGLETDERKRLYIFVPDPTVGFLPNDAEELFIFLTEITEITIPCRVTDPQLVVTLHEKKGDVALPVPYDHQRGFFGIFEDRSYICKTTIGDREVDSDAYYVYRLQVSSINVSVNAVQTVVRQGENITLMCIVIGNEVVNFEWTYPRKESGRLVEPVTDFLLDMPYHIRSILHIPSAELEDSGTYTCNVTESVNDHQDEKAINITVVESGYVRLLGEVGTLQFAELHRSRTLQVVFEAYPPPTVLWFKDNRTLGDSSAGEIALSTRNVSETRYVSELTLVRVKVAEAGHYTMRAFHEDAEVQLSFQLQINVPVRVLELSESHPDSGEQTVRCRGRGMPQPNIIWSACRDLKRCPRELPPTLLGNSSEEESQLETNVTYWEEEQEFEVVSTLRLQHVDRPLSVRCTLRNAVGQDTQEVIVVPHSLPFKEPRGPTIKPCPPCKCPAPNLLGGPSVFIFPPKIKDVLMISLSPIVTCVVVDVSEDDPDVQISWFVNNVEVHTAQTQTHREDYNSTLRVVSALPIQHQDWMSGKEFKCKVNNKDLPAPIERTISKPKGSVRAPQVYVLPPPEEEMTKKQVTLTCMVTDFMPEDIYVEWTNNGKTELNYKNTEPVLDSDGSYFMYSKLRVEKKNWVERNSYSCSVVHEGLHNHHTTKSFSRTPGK
Protocol: as §1

[3] = target: T3, Macaca fascicularis PDGFRb.mmh (Macaca fascicularis); assay: SPR, mAb captured, 25 C
T3 construct: Soluble monomeric construct; also called mfPDGFRb.mmh
T3 chain: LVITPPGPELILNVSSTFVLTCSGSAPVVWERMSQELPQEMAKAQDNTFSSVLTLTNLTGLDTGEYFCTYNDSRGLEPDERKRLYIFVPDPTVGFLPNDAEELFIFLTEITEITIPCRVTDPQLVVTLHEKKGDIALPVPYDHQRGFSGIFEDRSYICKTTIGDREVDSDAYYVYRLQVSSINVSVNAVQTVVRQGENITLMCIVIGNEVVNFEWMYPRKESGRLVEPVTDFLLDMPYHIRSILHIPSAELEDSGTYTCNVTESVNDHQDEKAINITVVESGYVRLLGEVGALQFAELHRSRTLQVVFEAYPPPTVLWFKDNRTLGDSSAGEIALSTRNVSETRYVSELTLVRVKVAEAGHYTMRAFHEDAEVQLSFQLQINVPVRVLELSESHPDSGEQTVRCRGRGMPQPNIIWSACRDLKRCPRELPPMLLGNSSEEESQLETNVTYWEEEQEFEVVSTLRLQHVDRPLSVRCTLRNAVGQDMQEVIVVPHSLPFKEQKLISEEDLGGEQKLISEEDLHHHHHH
Protocol: as §1

hPDGFRb.mmh [4] = target: T1, hPDGFRb.mmh; assay: blocking ELISA, biot-hPDGFRb.mmh to coated PDGF-BB
Protocol: The equilibrated PDGFR-beta/antibody solutions were added to ligand-coated plates, allowed to incubate for 1 hr, and washed. Levels of bound biot-hPDGFR-beta.mmh were detected using HRP conjugated streptavidin. Data were analyzed using Prism software and IC₅₀ values were calculated as the amount of antibody required to achieve 50% reduction of hPDGFR-beta-mmh bound to ligand. Maximum blocking values were also calculated and reflect the ability of the antibody to block relative to baseline. The absorbance measured at the constant amount of 250 pM biot-hPDGFR-beta-mmh on the dose curve is defined as 0% blocking and the absorbance with no added PDGFR-beta is defined as 100%. The absorbance of the wells containing the highest antibody concentration determined the maximum blocking percent.

hPDGFRb.mmh [5] = target: T1, hPDGFRb.mmh; assay: SPR, mAb captured, 37 C
Protocol: as §1

T1 sequence (P09619 other isoform, or with tags, fused parts or gaps): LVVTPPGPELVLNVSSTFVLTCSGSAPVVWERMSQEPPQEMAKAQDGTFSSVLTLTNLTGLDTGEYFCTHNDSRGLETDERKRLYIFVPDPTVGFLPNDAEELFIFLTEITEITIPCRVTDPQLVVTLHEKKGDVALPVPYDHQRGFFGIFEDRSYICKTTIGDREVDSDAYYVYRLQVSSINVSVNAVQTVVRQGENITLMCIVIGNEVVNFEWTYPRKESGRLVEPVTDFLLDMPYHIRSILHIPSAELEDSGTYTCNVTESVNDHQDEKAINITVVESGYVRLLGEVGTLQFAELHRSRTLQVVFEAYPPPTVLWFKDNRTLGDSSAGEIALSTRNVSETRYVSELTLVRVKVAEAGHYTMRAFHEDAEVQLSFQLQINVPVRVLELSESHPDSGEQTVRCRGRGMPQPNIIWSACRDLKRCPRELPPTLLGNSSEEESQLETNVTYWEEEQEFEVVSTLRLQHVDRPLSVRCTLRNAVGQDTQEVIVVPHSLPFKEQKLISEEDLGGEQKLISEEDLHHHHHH
Sequence of full length human PDGFR-beta on HEK293 cells (P09619 33-1106 limits assumed): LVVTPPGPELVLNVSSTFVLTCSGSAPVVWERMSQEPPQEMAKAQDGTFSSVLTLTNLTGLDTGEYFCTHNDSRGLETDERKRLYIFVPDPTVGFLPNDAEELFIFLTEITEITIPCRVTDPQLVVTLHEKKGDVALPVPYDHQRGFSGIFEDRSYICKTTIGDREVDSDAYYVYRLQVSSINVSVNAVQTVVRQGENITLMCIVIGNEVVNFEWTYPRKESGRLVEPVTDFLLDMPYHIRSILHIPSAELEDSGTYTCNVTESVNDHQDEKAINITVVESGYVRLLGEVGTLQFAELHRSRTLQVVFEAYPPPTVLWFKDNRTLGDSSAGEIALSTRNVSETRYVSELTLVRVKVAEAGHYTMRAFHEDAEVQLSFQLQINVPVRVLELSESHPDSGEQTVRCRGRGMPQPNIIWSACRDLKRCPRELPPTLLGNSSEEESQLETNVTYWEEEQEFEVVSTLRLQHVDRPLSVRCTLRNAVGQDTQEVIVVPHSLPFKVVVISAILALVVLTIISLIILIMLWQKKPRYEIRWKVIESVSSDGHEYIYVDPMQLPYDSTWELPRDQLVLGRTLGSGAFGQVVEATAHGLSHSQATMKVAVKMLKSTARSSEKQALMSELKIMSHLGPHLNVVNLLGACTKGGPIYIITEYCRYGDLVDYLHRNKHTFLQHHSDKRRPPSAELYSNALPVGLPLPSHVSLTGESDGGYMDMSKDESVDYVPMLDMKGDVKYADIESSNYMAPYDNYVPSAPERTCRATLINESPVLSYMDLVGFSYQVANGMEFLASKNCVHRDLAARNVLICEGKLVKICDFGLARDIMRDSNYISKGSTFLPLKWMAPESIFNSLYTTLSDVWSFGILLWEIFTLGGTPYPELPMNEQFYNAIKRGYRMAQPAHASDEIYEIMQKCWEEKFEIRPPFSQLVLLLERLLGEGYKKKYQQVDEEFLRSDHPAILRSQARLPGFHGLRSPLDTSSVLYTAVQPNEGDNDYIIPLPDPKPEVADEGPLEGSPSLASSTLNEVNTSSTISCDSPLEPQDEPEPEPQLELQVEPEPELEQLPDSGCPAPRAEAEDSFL

IC50, blocking PDGF-BB (250 pM) activation, SRE-luciferase [1]: 7e-11 M
IC50, blocking PDGF-DD (400 pM) activation, SRE-luciferase [1]: 9.2e-11 M
Kd (hPDGFRb.mmh [2]): 12.4 nM
koff (hPDGFRb.mmh [2]): 0.00235 s⁻¹
kon (hPDGFRb.mmh [2]): 189000 M⁻¹ s⁻¹
t1/2 (hPDGFRb.mmh [2]): 5 min
Kd (human PDGFRb.mFc): 0.507 nM
koff (human PDGFRb.mFc): 0.00024 s⁻¹
kon (human PDGFRb.mFc): 473000 M⁻¹ s⁻¹
t1/2 (human PDGFRb.mFc): 48 min
Kd [3]: 18.3 nM
koff [3]: 0.00238 s⁻¹
kon [3]: 130000 M⁻¹ s⁻¹
t1/2 [3]: 5 min
% Maximum Blocking (hPDGFRb.mmh [4]): 80%
IC50 (hPDGFRb.mmh [4]): 0.9 nM
Kd (hPDGFRb.mmh [5]): 29.8 nM
koff (hPDGFRb.mmh [5]): 0.0122 s⁻¹
kon (hPDGFRb.mmh [5]): 410000 M⁻¹ s⁻¹
t1/2 (hPDGFRb.mmh [5]): 0.9 min
B1: H2M3373N (antibody, V domains shown)
VH: EVQLRDSGGGLVQPGGSLRLSCVASGFTFSSYWMSWVRQAPGKGLEWVVNINRDGSEKYYVDSVKGRFIISRDNTKNSLYLQMESLRAEDTAVYYCARDPPYHLYGMDVWGQGTTVTVSS
VL: DIQMTQSPSSLSASVGDRVTITCRTSQGIRVDLAWYQQKPGKAPERLIYAASSLQSGVPSRFSGGGSGTEFTLTVSSLQPEDFATYYCLQHHNFPYTFGQGTKLEIK
notes: mouse Fc (H2M prefix; isotype not spelled out)

IC50, blocking PDGF-BB (250 pM) activation, SRE-luciferase [1]: 3.1e-10 M
IC50, blocking PDGF-DD (400 pM) activation, SRE-luciferase [1]: 2.1e-10 M
Kd (hPDGFRb.mmh [2]): 1.99 nM
koff (hPDGFRb.mmh [2]): 0.000331 s⁻¹
kon (hPDGFRb.mmh [2]): 167000 M⁻¹ s⁻¹
t1/2 (hPDGFRb.mmh [2]): 35 min
Kd (human PDGFRb.mFc): 0.108 nM
koff (human PDGFRb.mFc): 0.000107 s⁻¹
kon (human PDGFRb.mFc): 996000 M⁻¹ s⁻¹
t1/2 (human PDGFRb.mFc): 108 min
Kd [3]: 2.7 nM
koff [3]: 0.000371 s⁻¹
kon [3]: 137000 M⁻¹ s⁻¹
t1/2 [3]: 31 min
% Maximum Blocking (hPDGFRb.mmh [4]): 88%
IC50 (hPDGFRb.mmh [4]): 0.077 nM
Kd (hPDGFRb.mmh [5]): 1.71 nM
koff (hPDGFRb.mmh [5]): 0.00079 s⁻¹
kon (hPDGFRb.mmh [5]): 463000 M⁻¹ s⁻¹
t1/2 (hPDGFRb.mmh [5]): 15 min
B2: H1M3374N (antibody, V domains shown)
VH: QLQLQESGPGLVKPSETLSLTCTVSGGSITSSSYYWGWIRQPPGKGLEWIGSIYYRGSTNYNPSLKSRVTISVDSSKNQFYLKVSSVTAVDTAVYYCARQNGAARPSWFDPWGQGTLVTVSS
VL: EIVLTQSPDTISLSPGERATLSCRASQSISSIYLAWYQQKPGQAPRLLIYGASSRVTGIPDRFSVSGSGTDFTLTISRLEPEDFAVYYCQHYGISPFTFGPGTKVDIR
notes: mouse Fc format; also called H2M3374N

IC50, blocking PDGF-BB (250 pM) activation, SRE-luciferase [1]: 1.8e-10 M
IC50, blocking PDGF-DD (400 pM) activation, SRE-luciferase [1]: 1.7e-10 M
Kd (hPDGFRb.mmh [2]): 7.41 nM
koff (hPDGFRb.mmh [2]): 0.000341 s⁻¹
kon (hPDGFRb.mmh [2]): 46100 M⁻¹ s⁻¹
t1/2 (hPDGFRb.mmh [2]): 34 min
Kd (human PDGFRb.mFc): 0.313 nM
koff (human PDGFRb.mFc): 3.7e-05 s⁻¹
kon (human PDGFRb.mFc): 118000 M⁻¹ s⁻¹
t1/2 (human PDGFRb.mFc): 313 min
Kd [3]: 30 nM
koff [3]: 0.000185 s⁻¹
kon [3]: 7000 M⁻¹ s⁻¹
t1/2 [3]: 63 min
% Maximum Blocking (hPDGFRb.mmh [4]): 79%
IC50 (hPDGFRb.mmh [4]): 0.13 nM
Kd (hPDGFRb.mmh [5]): 6.17 nM
koff (hPDGFRb.mmh [5]): 0.000844 s⁻¹
kon (hPDGFRb.mmh [5]): 137000 M⁻¹ s⁻¹
t1/2 (hPDGFRb.mmh [5]): 14 min
B3: H2M3368N (antibody, V domains shown)
VH: QVQLQQWGAGLLKPSETLSLTCAVYGGSFSGYYWTWIRQSPGKGLEWMGEISHRGTTNYNPSLKSRLTISLDTSNNHFSLKLSSVTAADTAVYYCAREERLGMGYDYFGLDVWGQGTTVTVSS
VL: EIVLTQSPATLSLSPGERATLSCRASQSVSTYLTWYQQKPGQAPRLLIYDASNRATGIPARFSGSGSGTDFTLTISSLEPEDCAVYYCQQRSIWITFGQGTRLEIK
notes: as for B1
